# Laboratory results as given in PMC6513997.
# Target: native PRC2 purified from HeLa cells expressing FLAG-tagged EZH2 (not stated | human (endogenous in HeLa)) (UniProt Q15910)
# Sequence (Q15910 whole entry, chain 1 of 4): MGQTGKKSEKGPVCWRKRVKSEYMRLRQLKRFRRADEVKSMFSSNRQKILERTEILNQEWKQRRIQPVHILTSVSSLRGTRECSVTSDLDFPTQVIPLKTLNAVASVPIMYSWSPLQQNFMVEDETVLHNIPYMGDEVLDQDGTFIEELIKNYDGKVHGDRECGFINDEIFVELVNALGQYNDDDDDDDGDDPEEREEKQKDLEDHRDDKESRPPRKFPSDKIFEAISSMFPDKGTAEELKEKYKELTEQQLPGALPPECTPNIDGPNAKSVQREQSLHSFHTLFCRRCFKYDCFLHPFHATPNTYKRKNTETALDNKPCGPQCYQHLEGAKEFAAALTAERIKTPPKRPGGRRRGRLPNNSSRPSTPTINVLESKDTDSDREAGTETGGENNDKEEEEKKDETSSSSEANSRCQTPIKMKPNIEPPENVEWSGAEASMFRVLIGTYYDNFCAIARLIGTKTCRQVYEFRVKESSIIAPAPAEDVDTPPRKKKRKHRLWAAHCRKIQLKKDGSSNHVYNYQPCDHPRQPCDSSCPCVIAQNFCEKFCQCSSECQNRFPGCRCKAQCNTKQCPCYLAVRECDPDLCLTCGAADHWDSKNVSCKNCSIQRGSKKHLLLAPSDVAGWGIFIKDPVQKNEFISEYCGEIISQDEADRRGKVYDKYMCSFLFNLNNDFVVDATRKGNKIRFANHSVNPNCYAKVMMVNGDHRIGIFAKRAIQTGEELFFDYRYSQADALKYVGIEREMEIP
# Sequence (Q15022 whole entry, chain 2 of 4, further chain): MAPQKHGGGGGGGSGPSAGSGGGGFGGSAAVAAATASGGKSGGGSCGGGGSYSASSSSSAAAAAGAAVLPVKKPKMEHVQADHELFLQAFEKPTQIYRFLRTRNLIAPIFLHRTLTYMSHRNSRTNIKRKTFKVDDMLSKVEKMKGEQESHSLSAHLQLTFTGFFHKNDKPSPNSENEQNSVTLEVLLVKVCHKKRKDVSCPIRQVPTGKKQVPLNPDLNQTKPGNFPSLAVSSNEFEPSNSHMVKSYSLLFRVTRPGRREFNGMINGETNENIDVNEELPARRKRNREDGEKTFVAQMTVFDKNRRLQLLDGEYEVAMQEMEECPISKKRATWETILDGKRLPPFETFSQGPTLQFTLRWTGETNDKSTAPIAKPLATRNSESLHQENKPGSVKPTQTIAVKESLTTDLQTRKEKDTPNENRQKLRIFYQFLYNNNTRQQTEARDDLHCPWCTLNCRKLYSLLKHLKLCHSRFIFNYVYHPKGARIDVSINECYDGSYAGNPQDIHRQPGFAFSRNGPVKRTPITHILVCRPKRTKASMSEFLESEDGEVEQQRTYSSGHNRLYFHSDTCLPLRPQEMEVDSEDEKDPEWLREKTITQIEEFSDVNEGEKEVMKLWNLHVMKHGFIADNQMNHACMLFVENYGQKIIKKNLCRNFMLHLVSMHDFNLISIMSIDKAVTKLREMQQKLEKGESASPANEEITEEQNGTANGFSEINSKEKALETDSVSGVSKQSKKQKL
# Sequence (O75530 2-441, chain 3 of 4, further chain): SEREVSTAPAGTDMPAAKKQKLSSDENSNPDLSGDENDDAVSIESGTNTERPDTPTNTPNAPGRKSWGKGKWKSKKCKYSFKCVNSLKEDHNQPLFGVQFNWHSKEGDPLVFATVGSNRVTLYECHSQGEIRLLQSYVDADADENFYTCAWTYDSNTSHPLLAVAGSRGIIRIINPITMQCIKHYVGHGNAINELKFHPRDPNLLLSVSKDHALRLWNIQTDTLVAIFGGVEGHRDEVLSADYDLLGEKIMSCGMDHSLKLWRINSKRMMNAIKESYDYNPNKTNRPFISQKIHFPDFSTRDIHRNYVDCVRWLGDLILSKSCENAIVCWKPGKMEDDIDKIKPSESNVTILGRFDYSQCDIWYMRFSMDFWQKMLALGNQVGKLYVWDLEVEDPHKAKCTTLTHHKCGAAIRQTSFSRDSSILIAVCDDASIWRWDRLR
# Sequence (Q09028 2-425, chain 4 of 4, further chain): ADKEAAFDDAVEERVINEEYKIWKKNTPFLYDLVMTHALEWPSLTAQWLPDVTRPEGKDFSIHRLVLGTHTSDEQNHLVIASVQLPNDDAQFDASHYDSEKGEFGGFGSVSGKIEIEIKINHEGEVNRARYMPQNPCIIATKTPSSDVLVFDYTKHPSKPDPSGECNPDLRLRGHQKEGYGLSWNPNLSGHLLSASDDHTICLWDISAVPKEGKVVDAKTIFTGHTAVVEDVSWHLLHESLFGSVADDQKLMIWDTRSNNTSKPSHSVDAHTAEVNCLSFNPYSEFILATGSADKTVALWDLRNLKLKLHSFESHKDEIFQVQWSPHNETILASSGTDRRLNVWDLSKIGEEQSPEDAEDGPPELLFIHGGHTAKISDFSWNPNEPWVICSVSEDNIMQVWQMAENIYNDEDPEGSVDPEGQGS
# Chain of full length recombinant EZHIP WT, 6x-His-tagged (natural protein) (Q86X51 whole entry): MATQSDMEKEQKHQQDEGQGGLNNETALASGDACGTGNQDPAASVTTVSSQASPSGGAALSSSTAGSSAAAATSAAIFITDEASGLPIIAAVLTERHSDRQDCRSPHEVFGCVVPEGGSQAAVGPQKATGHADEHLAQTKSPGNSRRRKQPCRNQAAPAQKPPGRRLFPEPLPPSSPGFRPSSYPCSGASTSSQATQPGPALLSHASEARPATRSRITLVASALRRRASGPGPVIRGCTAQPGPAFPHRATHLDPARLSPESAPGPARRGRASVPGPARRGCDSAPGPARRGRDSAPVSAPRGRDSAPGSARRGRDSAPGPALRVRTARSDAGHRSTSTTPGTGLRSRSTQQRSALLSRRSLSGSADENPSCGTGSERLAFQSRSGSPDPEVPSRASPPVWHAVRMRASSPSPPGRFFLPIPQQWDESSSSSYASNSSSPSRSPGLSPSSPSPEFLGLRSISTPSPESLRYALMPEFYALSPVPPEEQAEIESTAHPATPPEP
substance,measurement,value
"full length recombinant EZHIP WT, 6x-His-tagged (natural protein)","IC50 of PRC2-catalyzed methylation of oligonucleosomes, in vitro methyltransferase assay, EZHIP titrated",50 nM
